B6: HKU9 wild-type RBD (other)
chain: SYCTPPYSVLQDPPQPVVWRRYMLYDCVFDFTVVVDSLPTHQLQCYGVSPRRLASMCYGSVTLDVMRINETHLNNLFNRVPDTFSLYNYALPDNFYGCLHAFYLNSTAPYAVANRFPIKPGGRQSNSAFIDTVINAAHYSPFSYVYGLAVITLKPAAGSKLVCPVAN

Experiment [1] addresses B6. The experiment is described as follows: ELISA, antigen coated. Background: ELISA stands for enzyme-linked immunosorbent assay.
For experiment [2], the target named is B6. The experiment is described as follows: ELISA, antigen coated, binder 1 µg/mL, chemiluminescence.
Experiment [3] has as its target T1, GCCDC1 wild-type RBD (coronavirus GCCDC1 strain (Nobecovirus …)). The experiment is described as follows: ELISA, antigen coated.
The target in experiment [4] is T2, Zaria wild-type RBD (coronavirus Zaria strain (Hibecovirus …)). The experiment is described as follows: ELISA, antigen coated.
The target of experiment [5] is T3, Hp wild-type RBD (coronavirus Hp strain (Hibecovirus …)). The experiment is described as follows: ELISA, antigen coated.
The target of experiment [6] is T1, GCCDC1 wild-type RBD. The experiment is described as follows: ELISA, antigen coated, binder 1 µg/mL, chemiluminescence.
Experiment [7] concerns the target T2, Zaria wild-type RBD. Described as above.
Experiment [8] concerns the target T3, Hp wild-type RBD. Described as above.
A further experiment concerns the target SARS-CoV-2 wild-type RBD (SARS-CoV-2, UniProt P0DTC2 319-541). The description is as above.
In experiment [9] the target is T4, ACE2-hFc (AC2-H 5257, Acrobiosystems) (human, UniProt Q9BYF1 18-740).
T4 construct: also called ACE2-Fc
T4 sequence (Q9BYF1 18-740 limits assumed): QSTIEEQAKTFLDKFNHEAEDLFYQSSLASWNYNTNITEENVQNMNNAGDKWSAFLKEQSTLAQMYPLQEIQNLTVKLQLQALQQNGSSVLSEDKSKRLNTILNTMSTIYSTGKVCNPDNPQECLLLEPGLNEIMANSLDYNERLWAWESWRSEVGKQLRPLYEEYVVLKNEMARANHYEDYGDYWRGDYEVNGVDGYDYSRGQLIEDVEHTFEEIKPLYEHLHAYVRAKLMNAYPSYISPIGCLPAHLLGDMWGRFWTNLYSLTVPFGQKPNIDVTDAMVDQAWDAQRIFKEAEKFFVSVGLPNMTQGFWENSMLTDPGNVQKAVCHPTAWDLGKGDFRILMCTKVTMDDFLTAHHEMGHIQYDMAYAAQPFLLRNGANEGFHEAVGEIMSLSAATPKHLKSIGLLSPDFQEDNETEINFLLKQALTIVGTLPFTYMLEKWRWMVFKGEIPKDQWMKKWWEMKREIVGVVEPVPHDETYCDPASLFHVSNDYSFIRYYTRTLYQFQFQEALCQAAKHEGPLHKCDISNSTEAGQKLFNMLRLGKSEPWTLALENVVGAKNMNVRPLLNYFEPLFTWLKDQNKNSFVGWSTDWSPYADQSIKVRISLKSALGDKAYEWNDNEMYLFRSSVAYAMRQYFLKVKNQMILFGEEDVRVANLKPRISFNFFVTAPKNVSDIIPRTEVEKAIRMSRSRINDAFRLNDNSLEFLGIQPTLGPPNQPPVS
The experiment is described as follows: ELISA, antigen coated.

The source of these data is US20240255507A1 (SYSMEX, published 2024).

B1: REGN10933 (antibody, V domains shown)
VH: QVQLVESGGGLVKPGGSLRLSCAASGFTFSDYYMSWIRQAPGKGLEWVSYITYSGSTIYYADSVKGRFTISRDNAKSSLYLQMNSLRAEDTAVYYCARDRGTTMVPFDYWGQGTLVTVSS
VL: DIQMTQSPSSLSASVGDRVTITCQASQDITNYLNWYQQKPGKAPKLLIYAASNLETGVPSRFSGSGSGTDFTFTISGLQPEDIATYYCQQYDNLPLTFGGGTKVEIKR
In the case of B1, in the experiment with HKU9 wild-type RBD [1], the binding result is “no binding (tested: 1 µg/mL)”. The same molecule returned a signal intensity in the experiment with HKU9 wild-type RBD [2] of 943.

B2: BD23 (antibody, V domains shown)
VH: QVQLVQSGSELKKPGASVKVSCKASGYTFTSYAMNWVRQAPGQGLEWMGWINTNTGNPTYAQGFTGRFVFSLDTSVSTAYLQISSLKAEDTAVYYCARPQGGSSWYRDYYYGMDVWGQGTTVTVSS
VL: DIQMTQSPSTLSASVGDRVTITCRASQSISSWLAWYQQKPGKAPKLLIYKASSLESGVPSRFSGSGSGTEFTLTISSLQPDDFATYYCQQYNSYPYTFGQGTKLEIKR
Take B2: in the experiment with HKU9 wild-type RBD [1], the binding result is “no binding (tested: 1 µg/mL)”. This molecule came in with a signal intensity in the experiment with HKU9 wild-type RBD [2] of 803.

B3: CR3022 (antibody, V domains shown)
VH: QMQLVQSGTEVKKPGESLKISCKGSGYGFITYWIGWVRQMPGKGLEWMGIIYPGDSETRYSPSFQGQVTISADKSINTAYLQWSSLKASDTAIYYCAGGSGISTPMDVWGQGTTVTVSS
VL: DIQMTQSPSSLSASVGDRVTITCRASQSIYSALNWYQQKPGKAPKLLIYAASALQSGVPSRFSGSGSGTDFTLTISSLQPEDFATYYCQQTDIHPYTFGQGTKVEIKR
For the molecule B3, the binding result in the experiment with GCCDC1 wild-type RBD [3], with Zaria wild-type RBD [4], in the experiment with Hp wild-type RBD [5] and with HKU9 wild-type RBD [1] was “no binding (tested: 1 µg/mL)” throughout. For the same molecule, the signal intensity came to 100 with GCCDC1 wild-type RBD [6]; 330 with Zaria wild-type RBD [7]; 100 with Hp wild-type RBD [8]; 1.07e+06 with SARS-CoV-2 wild-type RBD; 433 in the experiment with HKU9 wild-type RBD [2].

B4: CV30 (antibody, V domains shown)
VH: EVQLVESGGGLIQPGGSLRLSCAASGVIVSSNYMSWVRQAPGKGLEWVSVIYSGGSTYYADSVKGRFTISRDNSKNTLYLQMNSLRAEDTAVYYCARDLDVSGGMDVWGQGTTVTVSS
VL: not shown
On to B4, for which the binding result with GCCDC1 wild-type RBD [3], with Zaria wild-type RBD [4], with Hp wild-type RBD [5] and with HKU9 wild-type RBD [1] was “no binding (tested: 1 µg/mL)” each time. Also, the signal intensity with GCCDC1 wild-type RBD [6] is 130; with Zaria wild-type RBD [7], 100; with Hp wild-type RBD [8], 150; with SARS-CoV-2 wild-type RBD, 921000; in the experiment with HKU9 wild-type RBD [2], 583.

B5: REGN10987 (antibody, V domains shown)
VH: QVQLVESGGGVVQPGRSLRLSCAASGFTFSNYAMYWVRQAPGKGLEWVAVISYDGSNKYYADSVKGRFTISRDNSKNTLYLQMNSLRTEDTAVYYCASGSDYGDYLLVYWGQGTLVTVSS
VL: QSALTQPASVSGSPGQSITISCTGTSSDVGGYNYVSWYQQHPGKAPKLMIYDVSKRPSGVSNRFSGSKSGNTASLTISGLQSEDEADYYCNSLTSISTWVFGGGTKLTVLR
Regarding B5, in the experiment with HKU9 wild-type RBD [1], the binding result is reported as “no binding (tested: 1 µg/mL)”. For the same molecule, the signal intensity with HKU9 wild-type RBD [2] was found to be 1120.

Regarding B6, in experiment [9], the binding result is “no binding (tested: 1 µg/mL)”.
